Laboratory results as given in a protein production outcome set (Wang et al. 2014).

assay: label from the status in PepcDB records

Sequence	protein production
MAAGALPAREPGLLKPAVLWLLLLAPLFFSTYGFATWVTAQRDDVGSMVFDWERHMPFWAWTIVPYWSIDLLYGFSLLLPRSRDELKRHALRLLTAQVIAVSCFLLWPLSFTFSRPELDGVFGWLFAVLAGFDKPFNQAPSLHIALLVVLWVCYARHTQGFWRWLVHGWFALIGVSVLSTYQHHFIDVPTGALAGWLCVWLWPLDRPSPLFSARAAQDPKRRQLALRYGLGATLFAGAAFAWGGAALWLIWPAVALLLVALNYALLGAEGFQKRQDGSLSPAARWLLAPYLAAAWINSRLWTRKHPQPDPVVDNVWLGRLPTPAELKDSPFDAVLDLCAELSLDSRGLRAYQSLPVLDLCAPSAEQCLAAAHAIERLRQQGPLLVCCALGYSRSATAIAAWLLHSGRAATVDAAIVQIQRARPQIVLHPAHRQALQALSSAGRTAHVH	failed
MAAGPEPPEWEPRWRKALRGKENKGSVEIMRKDLNDARDLHGQAESAAAVWKGHVMDRRKKALTDYKKLRAFFVEEEEHFLQEAEKDEGASEDDELADPADRFRSLLQAVSELEKKHRNLGLSMLLQ	not failed
MAAKSLVDIAYESDSSSDSSDEGDVPCLPKDEVNERKLQNLQRKAFYNLLQTFAFENSTMSNKRTEIIGKLMNEWGIANETHISFADQIQKKLLTLKQTKHSGVKETQIPATPLTNTATPSTFFVPKPVKSWGSVNPESLIGKWVSIRLPDKAKFTEYIIKAYDAEKEMHSLLTETSNPMEVDCIDPFRWIDIRDISPNDIMWEGGQKPNFAAPNQSAAATGQ	failed
MAALLGIVSPVTFTGKHPVNSRSRRRTVVKCSNERRILFNRIAPVYDNLNDLLSLGQHRIWKNMAVSWSGAKKGDYVLDLCCGSGDLAFLLSEKVGSTGKVMGLDFSSEQLAVAATRQSLKARSCYKCIEWIEGDAIDLPFDDCEFDAVTMGYGLRNVVDRLRAMKEMYRVLKPGSRVSILDFNKSNQSVTTFMQGWMIDNVVVPVATVYDLAKEYEYLKYSINGYLTGEELETLALEAGFSSACHYEISGGFMGNLVAMR	failed
MAALSGVFVWDEERIQEEELQRSINEMKRLEEMSNIFQSSGVENYPPEPKSPAGGNEKSKDKEEPWEMVMDKKHFKLWRRPITGTHLYQYRVFGTYTDVTPRQFFNVQLDTEYRKKWDALVIKLEVIERDAVSGSEVLHWVTHFPYPMYSRDYVYVRRYSVDQENNVMVLVSRAVEHPSVPESPEFVRVRSYESQMVIRPHKSFDENGFDYLLTYSDNPQTVFPRYCVSWMVSSGMPDFLEKLHMATLKAKNMEIKVKDYISAKPLEMSSEAKATAPSPERKNEGSCGPARIEYA	failed
MAARLLFRRSSQILRSIQRNPQISSSFESPPCPIFHSLTTASPDPSRLSSLTFLRSLSIARRGPTRPKKIDIGAKARQMQNRRLWTYALTFSCIAGFVVIVLNQFQDQLVFYLTPSDAMEKFAENPTKNKFRLGGLVLEGSVAQPAASQEMEFVITDLITDILVRYKGSLPDLFREGHSVVVEGFIKPYTDEVRKEVSTKPISKKARNLDCFFSATEVLAKHDEKYMPQEVAAAIEKNKKIIEAAATEQAAEVAAS	failed
MAASPSTYAFNGESKETGNDSSKLSKAPATKGGKPHIIFIMSDQHRGDALHCMGNKAVISPNIDKLAQEGSLFVCGYSSAPSSTPARAGLLTGMSPWHHGMLGYGKVASKYKYEMPQMLRDLGYYTFGIGKMHWFPQKALHGFHATLVDESGRSETRDFISDYREWFQLQAPGKNPDLTGIGWNNHNAGTYKLEERLHPTAWTGQTACELIRNYDSDQPLFLKVSFARPHSPYDPPKRYLDMYEKVDIPVPFVGDWCGKYAERKDPERVSKDAAFANLGEEYAVNSRRHYYANVTFIDDQIGQIIQTLKEKGMYENAIICYTADHGDMLGDHYHWRKTYAYEGSAKIPYIIKWPSAMTTQAIRGKRIEQPVELRDFLPTFIELAGGTVPDDMDGKSLVALASGNKNGWRKYIDLEHATCYSADNYWCALTDGKMKYIWFIHTGEEQLFDLSSDPGEQKNLSGNSRYADRLVEMRKAMVDHLQERGTEFVKDGKLAVRDQTLLYSPNYPKD	failed
MAASSQAPEAKGFRWKLIAPLVVWLAIYLWPVPSGLNVNQWHYFAVFAAVITGLILESMPVGAVGLIGLTVAGVGGYIDPDPTKSLRWMLAGFAESTVWLIVGAFVFSIGYRKSQLGRRIALVLVQKLGSNTLGLGYAVAMSDFLLAPATPSNTARSGGIVYPIISNIPRIYGSEPGPTAGRIGTYVMWTAFAATAVTSSLFFTALAPNAAALAIAKKTVGVEVSWGQWFIGFAPLGILLMILVPLLSYPVCRPEVKRSPEIAEWAAKELSEMGPMSRNEWIMLALIVLAMFLWIAGSSPDINVPLLGSNFVNATTVVFIVISLMLVTGVIEFADIVSEKSAWEVFFYFTSLLTLASGLNEIGFIKWFATEYAKPLAGLSPSTAMILLVALFFWIHYFFSSITSHAAAVLPVVLAVGSGIPGLPVTTLAMLCMYSLGLMGVISPYATGPAPMYFGSGYIGKGQFWGFGLIFGLLYFAGLLLIVLPWLQVR	failed
MAASTSSSSSSSSSSLSSPSPCTWRYMTFTSFHGPDVRNTFLSHLRKQFNTNGITMFDDQRMERSQTLAPTLTQAIRESKIYIVLLSKNYASSSWCLDELLEILNCKEKRGQRVMTIFYGVNPSDVRKQTGEFGIAFNETCARKTEEERRKWSHALTCVGNITGVHVQDRDDEANMIEKIATDVSEKLNATESKDFDEMVGIKAHLTKIESLLSLDYDKVKIVGISGPAGIGKSTIARALHNLLSSSFHLSCFMENLISQSNPHSSLEYSSKLSLQEQLLSQVLNEKDIRIRHLGAIQERLHDQRVLIILDDVTSLEQLEVLANIKWYGPGSRIIVITKKKDILVQHGICDIYHVGFPTDADALKIFCLSAYRQTSPPDGSMKIHECEMFIKICGNLPLHLHVLGSALRGRSYGRVQSLCNLVSLADFV	failed
MAAVWQQVLAVDARYNAYRTPTFPQFRTQYIRRRSQLLRENAKAGHPPALRRQYLRLRGQLLGQRYGPLSEPGSARAYSNSIVRSSRTTLDRMEDFEDDPRALGARGHRRSVSRGSYQLQAQMNRAVYEDRPPGSVVPTSAAEASRAMAGDTSLSENYAFAGMYHVFDQHVDEAVPRVRFANDDRHRLACCSLDGSISLCQLVPAPPTVLRVLRGHTRGVSDFAWSLSNDILVSTSLDATMRIWASEDGRCIREIPDPDSAELLCCTFQPVNNNLTVVGNAKHNVHVMNISTGKKVKGGSSKLTGRVLALSFDAPGRLLWAGDDRGSVFSFLFDMATGKLTKAKRLVVHEGSPVTSISARSWVSREARDPSLLINACLNKLLLYRVVDNEGTLQLKRSFPIEQSSHPVRSIFCPLMSFRQGACVVTGSEDMCVHFFDVERAAKAAVNKLQGHSAPVLDVSFNCDESLLASSDASGMVIVWRREQK	failed
MAAWCSPRWLRVAVGTPRLPAAAGRGVQQPQGGVVAASLCRKLCVSAFGLSMGAHGPRALLTLRPGVRLTGTKSFPFVCTASFHTSASLAKDDYYQILGVPRNASQKDIKKAYYQLAKKYHPDTNKDDPKAKEKFSQLAEAYEVLSDEVKRKQYDAYGSAGFDPGASSSGQGYWRGGPSVDPEELFRKIFGEFSSSPFGDFQNVFDQPQEYIMELTFNQAAKGVNKEFTVNIMDTCERCDGKGNEPGTKVQHCHYCSGSGMETINTGPFVMRSTCRRCGGRGSIITNPCVVCRGAGQAKQKKRVTVPVPAGVEDGQTVRMPVGKREIFVTFRVQKSPVFRRDGADIHSDLFISIAQAILGGTAKAQGLYETINVTIPAGIQTDQKIRLTGKGIPRINSYGYGDHYIHIKIRVPKRLSSRQQNLILSYAEDETDVEGTVNGVTHTSTGGRTMDSSTGSKDRREAGEDNEGFLSKLKKIFTS	failed
MAAWRAEARRLAQAGVPAESVVWRVGAGEADLFADLPALPAGPARQIRLSREAVGSLETALCHADPERFGRAYGLLLRLADGTLRWGDRSDPALRKLLAQEKMVRREIHKMHAFVRFRELPSEGPRRAFAAWFEPDHPVEEAATPFFARRFGDMDWAIVTPEVTARFVAGQLDFALTEERTAPPADGTEELWRTYYANIFNPARLMVKAMQSEMPKRYWKNLPEAELIPGLIRGAAERAAEMQAAAPTEPPARTAAVARQRAAAAGGPAAAGDGSAPGTLAEAKTAAEGCRRCGLWANATQVVFGEGPATARMMIVGEQPGDREDLAGRPFVGPAGQLFDEEAAAAGLDRGSVYVTNAVKHFKFAPRGKRRIHQKPDAGEVTACRWWLDLERDLVRPRLIVAMGATALASLTGSGAGILKRRGSVERLDDGTPVFVTVHPSYILRLPDEAARVEERRRFRDDLQAARQLLERLD	failed
MAAYQVLIVGAGFSGAETAFWLAQKGVRVGLLTQSLDAVMMPFLPPKPPFPPGSLLERAYDPKDERVWAFHARAKYLLEGLRPLHLFQATATGLLLEGNRVVGVRTWEGPPARGEKVVLAVGSFLGARLFLGGVVEEAGRLSEASYPDLLEDLSRLGFRFVEREGEVPETPSTPGYRVRYLAFHPEEWEEKTFRLKRLEGLYAVGLCVREGDYARMSEEGKRLAEHLLHELG	not failed
MACARAWRTMSPCGGKQVHPLQECGLCSAPAGVARTHARQGADPMLPELGTFLLVLALLVALVQAVVPLAGAQRGRSSWMAVARPAAMVQLALIASAFAVLTHAFLVQDFSVRYVAENSNSLLPMMYRYSAVWGAHEGSLLLWTLVLALWTGAVAIWSRQLPAHVIARVLGVMALVSIGFLAFLLFTSNPFARLFPVPLEGGDLNPLLQDPGLIVHPPMLYCGYVGFAVPFAFAIAALLEGRMDARWLRWTRPWTNVAWSMLTVGIALGSWWAYYELGWGGWWFWDPVENASFMPWLVGTALLHSQAVTEKRGSFASWTLLLAIAAFALSLLGTFLVRSGVLTSVHSFAADPSRGLFILVFLLLVVGGSLVLYALRAPRLSLVDDPRRAFAGSSRETLLLLNNLLLTCACAMVLLGTLYPLLADALGLGKLSVGPPYFGTLFVVLMAPLVALVPFGPLTRWQREQASRPLAMLAPWAGLALAAGVLAWFAAPQGQLKAAVGVAGAAWVLLGTARFLWTRRAAKGRKFTPEMLGMVLAHLGVAVFLSGALLVEGLSLQREVALAPGQQVQIGRYALHFDGLEELRGPNYVSDRANLQVLKDDAPVGVVHAEKRRYASGGQTLTEAAIRPGPFGDLYVALGEPLGNQAWAVRVHLKPFVRWIWLGALLMALGGLVTAADRRFRRSPEIQDG	failed
MACEGAPEVRIGRKPVMNYVLAILTTLMEQGTNQVVVKARGRNINRAVDAVEIVRKRFAKNIEIKDIKIDSQEIEVQTPEGQTRTRRVSSIEICLEKAGESA	not failed
MACEGRTMISDTYKVRVNLGLCALAAAITLAGCAGLPDQRLANEALKRGDTALAERNYKALADLGYSEAQVGLADIKVATRDPSQIKEAEATYRAAAATSPRAQARLGRLLVAKPDSTQAEREEAETLLKQAAKQGQSNTLIPLAMLYLSYPQSFPKVNAQQQIDQWRAAGNPEAGLAQVLLYRTQGTYDQHLGEVEKICKAALNTTDICYVELATVYQKRGQADQQAALLGQLKSAYARGAVPATRVDSVARVLADRSLGQTDEKTAKELLEQVAPANPASWVSLAQLVYDFPELGDTDQLMAYIDKGREAEQPRAELLLGRLYYEGKTLPADAQKAEQHLQAAAEAGEISAHYYLGQLYRRGYLGNVEPQKAVDHLLAAARGGQNSADYALAQLFSEGHGIRPQPGNAWVFAQLSQANPTPQSAELLQQLDQQLTPDQRNQAQQLLDQEKRARGSLAQGANSTLALEALQDDEKEVDGEDSL	failed
MACFSDLSKECDMEGCRNHDFLPYKCEYCKLIFCEFHRNAEEHLCSKLKDMELNTVVLCEYCGIVLPDKKEDIQNHLIYKCLYKKKTKSILMCNKRDCKKVLNGINNYICKKCRKSFCLPHRYSDVHNCIKSDEEKSFFKSNIKKNKYILKVTTDGFINTTTHFFNSHTYIVC	failed
MACTVDFRCLDEGFGGKTYKRKRESQEQAAAEAIADEASMDIDGAPPAAKRSAVASSENPDKPIALAVERPTYDGVIAGKVSGRNWKQPRTHRSSGRFVKNRKPDLEEMKRQREIKKAYKERVNELKEEIRSNKVEKRKKKEEREKRKKENVLRTGTKLQKITNPKTLKKISMSKKQRKQLKKIPDEMLSGGSKKSITN	not failed
